Laboratory results reported in patent publication US20140087995A1 (published 2014).
Numbered stars: 1 amine (or outer) side, 2 acyl side, 3 side chain; on linkers, the order of the positions; unused ones are H or OH. Bridge positions count the residues as written; N and C are the ends. Side chains are listed from the residue outwards. Ends that are not written are not given here. * marks the point of attachment. C20 diacid = O=C(O)CCCCCCCCCCCCCCCCCCC(=O)*; γGlu = O=C(O)[C@H](CCC(=O)[*:2])N[*:1]

What was measured:
[1] = target: T1, human calcitonin receptor (human, UniProt P30988 25-474); experiment: IC50 on human CTR divided by IC50 on human amylin receptor (Assays VII/V)
T1 construct: whole, on cells; Used as membranes prepared from a BHK tk'ts 13 cell line stably transfected with the human calcitonin receptor (Assay VII); also called hCTR; hCT
T1 sequence (looked up): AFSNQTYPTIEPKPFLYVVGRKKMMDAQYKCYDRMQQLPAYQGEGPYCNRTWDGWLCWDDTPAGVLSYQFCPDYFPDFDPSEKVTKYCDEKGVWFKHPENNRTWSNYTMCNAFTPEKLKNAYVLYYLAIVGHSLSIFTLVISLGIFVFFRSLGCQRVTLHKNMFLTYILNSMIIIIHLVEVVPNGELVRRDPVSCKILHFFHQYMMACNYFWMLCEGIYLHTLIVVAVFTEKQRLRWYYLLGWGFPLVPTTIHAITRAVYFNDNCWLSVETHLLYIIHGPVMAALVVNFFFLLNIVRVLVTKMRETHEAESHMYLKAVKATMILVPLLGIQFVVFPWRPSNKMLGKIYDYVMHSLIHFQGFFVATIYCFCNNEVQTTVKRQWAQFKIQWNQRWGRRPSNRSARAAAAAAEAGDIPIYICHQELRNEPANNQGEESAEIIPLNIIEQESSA
In short: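 Competition binding by SPA with cell membranes (35 ng/μL) and SPA beads in 50 mM Hepes pH 7.4 with 1 mM CaCl2, 5 mM MgCl2, 0.1% OA and 0.02% Tween20. Incubated 120 min at 25 °C with shaking, then counted.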

[2] = target: T2, rat amylin receptor (rat calcitonin receptor + rat RAMP 3) (rat, UniProt P32214 25-516; Q9JJ73 23-147); experiment: SPA competition with 125I-rat amylin, membranes of BHK cells with rat CTR + rat RAMP3 (Assay VI)
T2 construct: whole, on cells; Used as membranes prepared from BHK tk'ts 13 cells transiently transfected with rat calcitonin receptor and rat RAMP 3 (Assay VI); also called rAmylin-R; rat amylin 3(a) receptor
T2 sequence (looked up) 1: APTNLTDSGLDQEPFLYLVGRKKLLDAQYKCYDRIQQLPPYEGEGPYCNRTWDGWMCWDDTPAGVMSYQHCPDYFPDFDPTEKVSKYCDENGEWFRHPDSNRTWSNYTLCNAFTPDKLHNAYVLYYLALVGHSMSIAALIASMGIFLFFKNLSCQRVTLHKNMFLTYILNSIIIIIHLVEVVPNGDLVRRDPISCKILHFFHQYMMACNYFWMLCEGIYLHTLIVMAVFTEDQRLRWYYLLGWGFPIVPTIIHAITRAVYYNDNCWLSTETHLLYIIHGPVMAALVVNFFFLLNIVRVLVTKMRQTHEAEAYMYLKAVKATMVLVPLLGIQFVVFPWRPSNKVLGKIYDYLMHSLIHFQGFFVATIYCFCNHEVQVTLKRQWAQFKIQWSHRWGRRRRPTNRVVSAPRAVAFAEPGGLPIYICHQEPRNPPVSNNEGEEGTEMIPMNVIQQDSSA
T2 sequence (looked up) 2: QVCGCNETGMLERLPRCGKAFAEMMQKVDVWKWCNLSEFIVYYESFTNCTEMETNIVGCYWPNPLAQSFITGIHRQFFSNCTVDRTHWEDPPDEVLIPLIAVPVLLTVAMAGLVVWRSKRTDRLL

rat calcitonin receptor [3] = target: T3, rat calcitonin receptor (rat, UniProt P32214 25-516); experiment: SPA competition with 125I-calcitonin, membranes of BHK cells with rat CTR (Assay VIII)
T3 construct: whole, on cells; Used as membranes prepared from BHK tk'ts 13 cells transiently transfected with the rat calcitonin receptor (Assay VIII); also called rCTR; rat calcitonin (a) receptor
T3 sequence (looked up): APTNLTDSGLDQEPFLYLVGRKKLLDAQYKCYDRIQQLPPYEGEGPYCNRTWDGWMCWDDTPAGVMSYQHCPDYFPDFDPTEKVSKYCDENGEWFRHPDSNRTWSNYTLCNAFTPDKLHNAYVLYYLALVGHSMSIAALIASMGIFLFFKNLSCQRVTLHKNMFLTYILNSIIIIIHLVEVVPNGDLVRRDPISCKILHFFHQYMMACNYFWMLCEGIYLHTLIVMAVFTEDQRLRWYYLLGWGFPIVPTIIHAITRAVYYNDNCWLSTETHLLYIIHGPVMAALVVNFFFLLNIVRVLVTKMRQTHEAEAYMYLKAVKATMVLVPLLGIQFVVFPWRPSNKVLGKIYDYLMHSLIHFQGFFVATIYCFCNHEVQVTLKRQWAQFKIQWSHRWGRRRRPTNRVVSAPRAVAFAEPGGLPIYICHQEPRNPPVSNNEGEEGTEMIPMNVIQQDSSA

rat calcitonin receptor [4] = target: T3, rat calcitonin receptor; experiment: IC50 on rat CTR divided by IC50 on rat amylin receptor (Assays VIII/VI)

Ratio hCT/hAmylin binding [1]: 69.7
IC50 [2]: 0.558 nM
IC50 (rat calcitonin receptor [3]): 112 nM
Ratio rCT/rAmylin binding (rat calcitonin receptor [4]): 201
B1: N^ε1-[(4S)-4-carboxy-4-(19-carboxynonadecanoylamino)butanoyl]-[Arg17,Pro21,Pro27]-h-amylin (peptide)
peptide: K([γGlu-C20 diacid])CNTATCATQRLANFLRHSSPNFGAIPSSTNVGSNTY-NH2
modifications: disulfide 2-7; N-terminus assumed
SMILES: CC[C@H](C)[C@H](NC(=O)[C@H](C)NC(=O)CNC(=O)[C@H](Cc1ccccc1)NC(=O)[C@H](CC(N)=O)NC(=O)[C@@H]1CCCN1C(=O)[C@H](CO)NC(=O)[C@H](CO)NC(=O)[C@H](Cc1c[nH]cn1)NC(=O)[C@H](CCCNC(=N)N)NC(=O)[C@H](CC(C)C)NC(=O)[C@H](Cc1ccccc1)NC(=O)[C@H](CC(N)=O)NC(=O)[C@H](C)NC(=O)[C@H](CC(C)C)NC(=O)[C@H](CCCNC(=N)N)NC(=O)[C@H](CCC(N)=O)NC(=O)[C@@H](NC(=O)[C@H](C)NC(=O)[C@@H]1CSSC[C@H](NC(=O)[C@@H](N)CCCCNC(=O)CC[C@H](NC(=O)CCCCCCCCCCCCCCCCCCC(=O)O)C(=O)O)C(=O)N[C@@H](CC(N)=O)C(=O)N[C@@H]([C@@H](C)O)C(=O)N[C@@H](C)C(=O)N[C@@H]([C@@H](C)O)C(=O)N1)[C@@H](C)O)C(=O)N1CCC[C@H]1C(=O)N[C@@H](CO)C(=O)N[C@@H](CO)C(=O)N[C@H](C(=O)N[C@@H](CC(N)=O)C(=O)N[C@H](C(=O)NCC(=O)N[C@@H](CO)C(=O)N[C@@H](CC(N)=O)C(=O)N[C@H](C(=O)N[C@@H](Cc1ccc(O)cc1)C(N)=O)[C@@H](C)O)C(C)C)[C@@H](C)O
notes: Analogue of human amylin; also called compound 48
